Positions count from the first letter of the chain named. In names and notes the source's numbering stands.
B1: felinized clone 101 Fab-SASA variant N53I (VL) (Fab, V domains shown, not shown: small tags and cut ends)
VH: DVQLVESGGDLVKPGGSLRLTCVASGLSLTSSSMSWVRQAPGKGLQWVSTIYSNGGTYYTDSVKGRFTISKDNAENTLYLQMNNLKTEDTATYYCASIYYYDADYLHWYFDFWGQGALVTVSS
VL: EIQMTQSPTSLSASVGDRVTITCRASEGISNNLSWYQQTPGKAPKLLIYATSILHSGVPSRFSGSGSGTDFTLTISSLQPEDFATYYCQQGYKWPLTFGGGTKLEITR
B2: felinized clone 101 Fab-SASA variant N53K (VL) (Fab, V domains shown, not shown: small tags and cut ends)
VH: B1 VH
VL: B1 VL with I53K
B3: felinized clone 101 Fab-SASA variant N53L (VL) (Fab, V domains shown, not shown: small tags and cut ends)
VH: B1 VH
VL: B1 VL with I53L
B4: felinized clone 101 Fab-SASA variant N53M (VL) (Fab, V domains shown, not shown: small tags and cut ends)
VH: B1 VH
VL: B1 VL with I53M
B5: felinized clone 101 Fab-SASA variant N53V (VL) (Fab, V domains shown, not shown: small tags and cut ends)
VH: B1 VH
VL: B1 VL with I53V
B6: felinized clone 101 Fab-SASA variant R24F (VL) (Fab, V domains shown, not shown: small tags and cut ends)
VH: B1 VH
VL: B1 VL with R24F, I53N
B7: felinized clone 101 Fab-SASA variant S28H (VH) (Fab, V domains shown, not shown: small tags and cut ends)
VH: B1 VH with S28H
VL: B1 VL with I53N
B8: felinized clone 101 Fab-SASA variant S30A (VL) (Fab, V domains shown, not shown: small tags and cut ends)
VH: B1 VH
VL: B1 VL with S30A, I53N
B9: felinized clone 101 Fab-SASA variant S30L (VL) (Fab, V domains shown, not shown: small tags and cut ends)
VH: B1 VH
VL: B1 VL with S30L, I53N
B10: felinized clone 101 Fab-SASA variant S30P (VL) (Fab, V domains shown, not shown: small tags and cut ends)
VH: B1 VH
VL: B1 VL with S30P, I53N
B11: felinized clone 101 Fab-SASA variant S30Q (VL) (Fab, V domains shown, not shown: small tags and cut ends)
VH: B1 VH
VL: B1 VL with S30Q, I53N
B12: felinized clone 101 Fab-SASA variant S30V (VL) (Fab, V domains shown, not shown: small tags and cut ends)
VH: B1 VH
VL: B1 VL with S30V, I53N
B13: felinized clone 101 Fab-SASA variant S30Y (VL) (Fab, V domains shown, not shown: small tags and cut ends)
VH: B1 VH
VL: B1 VL with S30Y, I53N
B14: felinized clone 101 Fab-SASA variant S31H (VH) (Fab, V domains shown, not shown: small tags and cut ends)
VH: B1 VH with S31H
VL: B1 VL with I53N
B15: felinized clone 101 Fab-SASA variant S34A (VL) (Fab, V domains shown, not shown: small tags and cut ends)
VH: B1 VH
VL: B1 VL with S34A, I53N
B16: felinized clone 101 Fab-SASA variant S34G (VL) (Fab, V domains shown, not shown: small tags and cut ends)
VH: B1 VH
VL: B1 VL with S34G, I53N
B17: felinized clone 101 Fab-SASA variant S35V (VH) (Fab, V domains shown, not shown: small tags and cut ends)
VH: B1 VH with S35V
VL: B1 VL with I53N
B18: felinized clone 101 Fab-SASA variant S53P (VH) (Fab, V domains shown, not shown: small tags and cut ends)
VH: B1 VH with S53P
VL: B1 VL with I53N
B19: felinized clone 101 Fab-SASA variant S56D (VL) (Fab, V domains shown, not shown: small tags and cut ends)
VH: B1 VH
VL: B1 VL with I53N, S56D
B20: felinized clone 101 Fab-SASA variant S56E (VL) (Fab, V domains shown, not shown: small tags and cut ends)
VH: B1 VH
VL: B1 VL with I53N, S56E
B21: felinized clone 101 Fab-SASA variant S56N (VL) (Fab, V domains shown, not shown: small tags and cut ends)
VH: B1 VH
VL: B1 VL with I53N, S56N
B22: felinized clone 101 Fab-SASA variant S56T (VL) (Fab, V domains shown, not shown: small tags and cut ends)
VH: B1 VH
VL: B1 VL with I53N, S56T
B23: felinized clone 101 Fab-SASA variant S62D (VH) (Fab, V domains shown, not shown: small tags and cut ends)
VH: B1 VH with S62D
VL: B1 VL with I53N
B24: felinized clone 101 Fab-SASA variant S97H (VH) (Fab, V domains shown, not shown: small tags and cut ends)
VH: B1 VH with S97H
VL: B1 VL with I53N
B25: felinized clone 101 Fab-SASA variant S97M (VH) (Fab, V domains shown, not shown: small tags and cut ends)
VH: B1 VH with S97M
VL: B1 VL with I53N
B26: felinized clone 101 Fab-SASA variant S97Q (VH) (Fab, V domains shown, not shown: small tags and cut ends)
VH: B1 VH with S97Q
VL: B1 VL with I53N
notes: Fab-SASA in conditioned medium
B27: felinized clone 101 Fab-SASA variant S97T (VH) (Fab, V domains shown, not shown: small tags and cut ends)
VH: B1 VH with S97T
VL: B1 VL with I53N
notes: as for B26
B28: felinized clone 101 Fab-SASA variant T30N (VH) (Fab, V domains shown, not shown: small tags and cut ends)
VH: B1 VH with T30N
VL: B1 VL with I53N
B29: felinized clone 101 Fab-SASA variant T30R (VH) (Fab, V domains shown, not shown: small tags and cut ends)
VH: B1 VH with T30R
VL: B1 VL with I53N
B30: felinized clone 101 Fab-SASA variant T60D (VH) (Fab, V domains shown, not shown: small tags and cut ends)
VH: B1 VH with T60D
VL: B1 VL with I53N
B31: felinized clone 101 Fab-SASA variant T60E (VH) (Fab, V domains shown, not shown: small tags and cut ends)
VH: B1 VH with T60E
VL: B1 VL with I53N
B32: felinized clone 101 Fab-SASA variant T60H (VH) (Fab, V domains shown, not shown: small tags and cut ends)
VH: B1 VH with T60H
VL: B1 VL with I53N
B33: felinized clone 101 Fab-SASA variant T60S (VH) (Fab, V domains shown, not shown: small tags and cut ends)
VH: B1 VH with T60S
VL: B1 VL with I53N
B34: felinized clone 101 Fab-SASA variant Y52W (VH) (Fab, V domains shown, not shown: small tags and cut ends)
VH: B1 VH with Y52W
VL: B1 VL with I53N

These binders were tested against T1, canine NGF tagged at the C-terminus with the Flag tag (canine, UniProt A0A8I3PYI3 122-241) (assay: SPR off-rate screen, Fab-SASA on BSA chip).
T1 construct: mature; Expressed with baculovirus technology; also called feline NGF (processed form identical)
T1 sequence (A0A8I3PYI3 entry or part of it): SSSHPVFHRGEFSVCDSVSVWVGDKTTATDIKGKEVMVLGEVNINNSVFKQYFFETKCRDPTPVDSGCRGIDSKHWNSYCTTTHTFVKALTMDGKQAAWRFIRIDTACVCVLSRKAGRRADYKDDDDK

Binder	Kd [nM]	Ratio WT-kd/clone-kd	koff [s⁻¹]	kon [M⁻¹ s⁻¹]
B1	1.41	2.42	0.000389	276000
B2	2.04	1.58	0.000596	292000
B3	2.08	1.41	0.000667	321000
B4	1.87	1.46	0.000648	346000
B5	1.42	2.32	0.000407	288000
B6	2.28	1.44	0.000655	287000
B7	2.55	1.18	0.000802	315000
B8	1.05	3.23	0.000292	277000
B9	1.87	1.86	0.000507	270000
B10	2.56	1.41	0.00067	262000
B11	1.25	2.91	0.000324	259000
B12	1.68	1.95	0.000483	287000
B13	2.2	1.21	0.000782	355000
B14	1.98	1.54	0.000612	310000
B15	1.74	1.2	0.000783	450000
B16	1.13	1.83	0.000514	456000
B17	1.17	2.62	0.00036	309000

Binder	Kd [nM]	Ratio WT-kd/clone-kd	koff [s⁻¹]	kon [M⁻¹ s⁻¹]
B18	2.15	1.36	0.000695	323000
B19	2.03	1.25	0.000755	372000
B20	2.19	1.17	0.000809	370000
B21	2.64	1.04	0.000903	341000
B22	1.99	1.32	0.000714	358000
B23	1.86	1.68	0.00056	301000
B24	1.79	1.77	0.000533	297000
B25	1.75	2.02	0.000466	266000
B26	1.36	2.34	0.000403	297000
B27	1.88	1.32	0.000716	380000
B28	2.12	1.34	0.000704	333000
B29	2.05	1.29	0.00073	357000
B30	1.93	1.66	0.000567	294000
B31	2.38	1.38	0.000683	287000
B32	1.8	1.68	0.000561	312000
B33	1.76	1.65	0.000573	325000
B34	1.5	1.45	0.000651	434000
